# From patent US5352595, “Myod regulatory region” (Fred Hutchinson Cancer Research Center)
# B1: myoD PRR A site (-190) (dsDNA)
# DNA 1: GGCAGCTGCC
# DNA 2: GGCAGCTGCC
# Biological target: MyoD:E12 heterodimer (UniProt P10085;P15806 P10085:1-318,P15806:1-651)
# Test: EMSA
# Chain of MyoD:E12 heterodimer (P10085 whole entry, chain 1 of 2): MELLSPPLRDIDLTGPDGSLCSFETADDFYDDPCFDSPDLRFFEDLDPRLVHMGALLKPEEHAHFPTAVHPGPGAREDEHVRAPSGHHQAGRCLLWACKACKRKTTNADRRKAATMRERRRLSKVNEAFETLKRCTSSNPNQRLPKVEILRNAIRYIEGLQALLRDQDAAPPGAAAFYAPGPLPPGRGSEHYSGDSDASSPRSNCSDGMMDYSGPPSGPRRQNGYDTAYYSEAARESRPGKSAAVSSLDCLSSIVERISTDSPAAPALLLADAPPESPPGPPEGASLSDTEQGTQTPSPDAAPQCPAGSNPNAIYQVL
# Chain of MyoD:E12 heterodimer (P15806 whole entry, chain 2 of 2): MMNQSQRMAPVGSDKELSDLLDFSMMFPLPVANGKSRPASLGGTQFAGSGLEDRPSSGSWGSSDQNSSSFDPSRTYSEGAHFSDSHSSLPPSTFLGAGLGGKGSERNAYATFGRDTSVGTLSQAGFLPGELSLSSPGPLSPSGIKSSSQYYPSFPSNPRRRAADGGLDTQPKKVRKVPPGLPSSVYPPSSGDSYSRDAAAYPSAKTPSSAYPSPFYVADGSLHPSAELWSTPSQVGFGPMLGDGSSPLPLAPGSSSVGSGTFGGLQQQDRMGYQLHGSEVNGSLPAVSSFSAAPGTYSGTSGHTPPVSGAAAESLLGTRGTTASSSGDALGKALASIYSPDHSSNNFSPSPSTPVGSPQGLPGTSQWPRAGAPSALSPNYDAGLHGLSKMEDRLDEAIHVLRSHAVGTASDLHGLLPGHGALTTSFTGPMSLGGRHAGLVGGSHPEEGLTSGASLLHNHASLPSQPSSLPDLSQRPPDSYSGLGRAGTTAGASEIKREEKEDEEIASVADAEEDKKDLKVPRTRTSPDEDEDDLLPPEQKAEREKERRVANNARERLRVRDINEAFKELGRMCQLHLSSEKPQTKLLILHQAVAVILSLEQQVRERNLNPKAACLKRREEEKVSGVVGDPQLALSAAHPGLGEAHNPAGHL
binder,measurement,value
B1,binding result,binds
